From paper PMC12005729
One block for each substance: values may come before it.

Key:
Assay in all cases: native gel or EMSA + other: dynamic light scattering; self-assembly into the 24-mer cage; DLS at 25 °C, 1 µM protein in 50 mM Tris-HCl, pH 8, 150 mM NaCl
[1] = molecular target: Fr‐F4 (Fr‐R52F/E56F/R59F/E63F), mutant of recombinant horse spleen apo‐L ferritin (horse)
[2] = molecular target: Fr‐F5/59A (Fr‐E53F/E56F/E57F/R59A/E60F/E63F), mutant of recombinant horse spleen apo‐L ferritin (horse)
[3] = molecular target: Fr‐F1 (Fr‐R59F), mutant of recombinant horse spleen apo‐L ferritin (horse)
[4] = molecular target: Fr‐F5/59L (Fr‐E53F/E56F/E57F/R59L/E60F/E63F), mutant of recombinant horse spleen apo‐L ferritin (horse)
[5] = molecular target: Fr‐F2 (Fr‐E56F/R59F), mutant of recombinant horse spleen apo‐L ferritin (horse)
[6] = molecular target: Fr‐F6 (Fr‐E53F/E56F/E57F/R59F/E60F/E63F), mutant of recombinant horse spleen apo‐L ferritin (horse)

Substance: Fr‐F5/59A (Fr‐E53F/E56F/E57F/R59A/E60F/E63F), mutant of recombinant horse spleen apo‐L ferritin (natural protein)
stoichiometry N [2]: 24

Substance: Fr‐F2 (Fr‐E56F/R59F), mutant of recombinant horse spleen apo‐L ferritin (natural protein)
stoichiometry N [5]: 24

Substance: Fr‐F6 (Fr‐E53F/E56F/E57F/R59F/E60F/E63F), mutant of recombinant horse spleen apo‐L ferritin (natural protein)
stoichiometry N [6]: 24

Now from value to substance:

stoichiometry N [1]: 24
Substance: Fr‐F4 (Fr‐R52F/E56F/R59F/E63F), mutant of recombinant horse spleen apo‐L ferritin (natural protein)

stoichiometry N [3]: 24
Substance: Fr‐F1 (Fr‐R59F), mutant of recombinant horse spleen apo‐L ferritin (natural protein)

stoichiometry N [4]: 24
Substance: Fr‐F5/59L (Fr‐E53F/E56F/E57F/R59L/E60F/E63F), mutant of recombinant horse spleen apo‐L ferritin (natural protein)
